The values that follow are results of earlier work, collected in PMC7717565, “Structure of the Lifeact–F-actin complex” (PLoS Biology, 2020).

Usually Kd stands for the concentration at which binding is half-saturated.

The target of this data set is F-actin (Oryctolagus cuniculus) (UniProt P68135).

As for Lifeact Lifeact (from UniProt Q08641), the Kd is 13.2 µM.
